This assay has as its target recombinant porcine astrovirus 4 (PoAstV4) capsid spike protein (porcine astrovirus 4). Put plainly: SEC; Superdex 200 16/600 column in TBS pH 8.0 (10 mM Tris-HCl, 150 mM NaCl), compared with BioRad gel filtration standards.

Usually stoichiometry N stands for the number of molecules, sites or subunits per partner or assembly.

Turning to “recombinant porcine astrovirus 4 (PoAstV4) capsid spike protein (domain or fragment)”, the stoichiometry N is 2.

Values taken from publication PMC11512355.
